Measurements as given in article PMC4527729, “The Inner Membrane Protein PilG Interacts with DNA and the Secretin PilQ in Transformation”.

Key:
[1] = target: PilG FL (Neisseria meningitidis MC58) (UniProt Q7DDR1); experiment: EMSA; conditions: Optimized EMSA: 50 mM HEPES pH 7.5, 100 mM NaCl, 5 mM MgCl2, 1 mM DTT, 10% glycerol, 0.05% DDM, on ice 15 min, 0.45 nM DNA; first EMSA: 25 mM NaH2PO4 pH 8.0 …
[2] = target: PilG1-256 (Neisseria meningitidis MC58, UniProt Q7DDR1 1-256); experiment: South-western; Optimized EMSA: 50 mM HEPES pH 7.5, 100 mM NaCl, 5 mM MgCl2, 1 mM DTT, 10% glycerol, 0.05% DDM, on ice 15 min, 0.45 nM DNA; first EMSA: 25 mM NaH2PO4 pH 8.0, 150 mM NaCl, 1 mM DTT, 10% glycerol, 0.05% DDM, on ice; conditions: protein: recombinant, tags: C-terminal 6xHis, label: 32P end label
[3] = target: PilG166-410 (Neisseria meningitidis MC58, UniProt Q7DDR1 166-410); experiment: as above; conditions: protein: recombinant, tags: C-terminal 6xHis, label: 32P end label
[4] = target: PilG1-60 (Neisseria meningitidis MC58, UniProt Q7DDR1 1-60); experiment: as above; conditions: protein: recombinant, tags: C-terminal 6xHis, label: 32P end label
[5] = target: PilG1-80 (Neisseria meningitidis MC58, UniProt Q7DDR1 1-80); experiment: as above; conditions: protein: recombinant, tags: C-terminal 6xHis, label: 32P end label
[6] = target: PilG1-140 (Neisseria meningitidis MC58, UniProt Q7DDR1 1-140); experiment: as above; conditions: protein: recombinant, tags: C-terminal 6xHis, label: 32P end label
[7] = target: PilG30-80 (Neisseria meningitidis MC58, UniProt Q7DDR1 30-80); experiment: as above; conditions: protein: recombinant, tags: C-terminal 6xHis, label: 32P end label
[8] = target: T1, PilG FL (Neisseria meningitidis MC58, UniProt Q7DDR1 1-410); experiment: as above; conditions: protein: recombinant, tags: C-terminal 6xHis, label: 32P end label
[9] = target: PilG257-410 (Neisseria meningitidis MC58, UniProt Q7DDR1 257-410); experiment: as above; conditions: protein: recombinant, tags: C-terminal 6xHis, label: 32P end label
[10] = target: T2, PilG1-178 (Neisseria meningitidis MC58, UniProt Q7DDR1 1-178); experiment: as above; conditions: protein: recombinant, tags: C-terminal 6xHis, label: 32P end label
[11] = target: T3, PilG EEE39-41AAA (Neisseria meningitidis MC58, UniProt Q7DDR1 1-410, E39A;E40A;E41A); experiment: South-western; increased vs FL per text; Optimized EMSA: 50 mM HEPES pH 7.5, 100 mM NaCl, 5 mM MgCl2, 1 mM DTT, 10% glycerol, 0.05% DDM, on ice 15 min, 0.45 nM DNA; first EMSA: 25 mM NaH2PO4 pH 8.0, 150 mM NaCl, 1 mM DTT, 10% glycerol, 0.05% DDM, on ice; conditions: protein: recombinant; tags: C-terminal 6xHis; label: 32P end label
[12] = target: PilG SS62-63AA (Neisseria meningitidis MC58, UniProt Q7DDR1 1-410, S62A;S63A); experiment: South-western; same as FL; Optimized EMSA: 50 mM HEPES pH 7.5, 100 mM NaCl, 5 mM MgCl2, 1 mM DTT, 10% glycerol, 0.05% DDM, on ice 15 min, 0.45 nM DNA; first EMSA: 25 mM NaH2PO4 pH 8.0, 150 mM NaCl, 1 mM DTT, 10% glycerol, 0.05% DDM, on ice; conditions: protein: recombinant; tags: C-terminal 6xHis; label: 32P end label
[13] = target: PilG Q55A (Neisseria meningitidis MC58, UniProt Q7DDR1 1-410, Q55A); experiment: as above; conditions: protein: recombinant; tags: C-terminal 6xHis; label: 32P end label
[14] = target: T2, PilG1-178; experiment: EMSA; 5 mM MgCl2; Optimized EMSA: 50 mM HEPES pH 7.5, 100 mM NaCl, 5 mM MgCl2, 1 mM DTT, 10% glycerol, 0.05% DDM, on ice 15 min, 0.45 nM DNA; first EMSA: 25 mM NaH2PO4 pH 8.0, 150 mM NaCl, 1 mM DTT, 10% glycerol, 0.05% DDM, on ice; conditions: protein: recombinant; tags: C-terminal 6xHis; label: 32P end label; blunt
[15] = target: PilG RKK43-45AAA (Neisseria meningitidis MC58, UniProt Q7DDR1 1-410, R43A;K44A;K45A); experiment: EMSA; extrapolated; about 50% bound at 5 uM per text; Optimized EMSA: 50 mM HEPES pH 7.5, 100 mM NaCl, 5 mM MgCl2, 1 mM DTT, 10% glycerol, 0.05% DDM, on ice 15 min, 0.45 nM DNA; first EMSA: 25 mM NaH2PO4 pH 8.0, 150 mM NaCl, 1 mM DTT, 10% glycerol, 0.05% DDM, on ice; conditions: protein: recombinant; tags: C-terminal 6xHis; label: 32P end label
[16] = target: T1, PilG FL; experiment: EMSA; optimized EMSA; R2 0.91?; Optimized EMSA: 50 mM HEPES pH 7.5, 100 mM NaCl, 5 mM MgCl2, 1 mM DTT, 10% glycerol, 0.05% DDM, on ice 15 min, 0.45 nM DNA; first EMSA: 25 mM NaH2PO4 pH 8.0, 150 mM NaCl, 1 mM DTT, 10% glycerol, 0.05% DDM, on ice; conditions: protein: recombinant; tags: C-terminal 6xHis; label: 32P end label
[17] = target: T3, PilG EEE39-41AAA; experiment: South-western; increased vs FL; Optimized EMSA: 50 mM HEPES pH 7.5, 100 mM NaCl, 5 mM MgCl2, 1 mM DTT, 10% glycerol, 0.05% DDM, on ice 15 min, 0.45 nM DNA; first EMSA: 25 mM NaH2PO4 pH 8.0, 150 mM NaCl, 1 mM DTT, 10% glycerol, 0.05% DDM, on ice; conditions: protein: recombinant; tags: C-terminal 6xHis; label: 32P end label

| Molecule | binding result [2] | binding result [3] | binding result [4] | binding result [5] | binding result [6] | binding result [7] | binding result [8] | binding result [9] | binding result [10] | other results |
| --- | --- | --- | --- | --- | --- | --- | --- | --- | --- | --- |
| 52 bp dsDNA, S3 Fig |  |  |  |  |  |  |  |  |  | Kd [1]: 300 nM |
| T1 (ssDNA) DNA: CAACAACAACAACAGCCGTCTGAACCAAATTCAGACGGCAACAACAACAACA | binds | no binding | no binding | binds | binds | no binding | binds | no binding | binds | binding result [11]: binds; binding result [12]: binds; binding result [13]: binds |
| T1T2 (dsDNA) DNA 1: CAACAACAACAACAGCCGTCTGAACCAAATTCAGACGGCAACAACAACAACA DNA 2: TGTTGTTGTTGTTGCCGTCTGAATTTGGTTCAGACGGCTGTTGTTGTTGTTG |  |  |  |  |  |  |  |  |  | binding result ([2]; blunt): binds; binding result ([3]; blunt): no binding; binding result ([4]; blunt): no binding; binding result ([5]; blunt): binds; binding result ([6]; blunt): binds; binding result ([7]; blunt): no binding; binding result ([8]; blunt): binds; binding result ([9]; blunt): no binding; binding result ([10]; blunt): binds |
| HH10HH11 (dsDNA DUS-) (dsDNA) DNA 1: AACAACAACAAAAGGCCTGTCATCCAACTTCCGGACAGTAAACAACAACAAC DNA 2: GTTGTTGTTGTTTACTGTCCGGAAGTTGGATGACAGGCCTTTTGTTGTTGTT |  |  |  |  |  |  |  |  |  | apparent K (half saturation) [14]: 269 nM |
| T3 (ssDNA) DNA: CAACAACAACAACAGGCCTGTCATCCAAAATGACAGGCCAACAACAACAACA | binds | no binding | no binding | binds | binds | no binding | binds | no binding | binds |  |
| T3T4 (dsDNA) DNA 1: CAACAACAACAACAGGCCTGTCATCCAAAATGACAGGCCAACAACAACAACA DNA 2: TGTTGTTGTTGTTGGCCTGTCATTTTGGATGACAGGCCTGTTGTTGTTGTTG |  |  |  |  |  |  |  |  |  | binding result ([2]; blunt): binds; binding result ([3]; blunt): no binding; binding result ([4]; blunt): no binding; binding result ([5]; blunt): binds; binding result ([6]; blunt): binds; binding result ([7]; blunt): no binding; binding result ([8]; blunt): binds; binding result ([9]; blunt): no binding; binding result ([10]; blunt): binds |
| HH8 (ssDNA) DNA: GTTGTTGTTGTTTTCAGACGGCATGTTGGTTCAGACGGCATTTGTTGTTGTT |  | no binding | no binding |  |  | no binding |  | no binding |  | binding result [11]: binds; apparent K (half saturation) [15]: ~15.7 mM; apparent K (half saturation) [16]: 1160 nM |
| HH9 (ssDNA) DNA: GTTGTTGTTGTTATGCCGTCTGAAGTTGGATGCCGTCTGAATTGTTGTTGTT | binds | no binding | no binding | binds | binds | no binding | binds | no binding | binds | binding result [12]: binds; binding result [13]: binds; binding result [17]: binds |
